Each sequence was assayed on Escherichia coli TOP10 (assay: shrunken log2 fold change of peptide-encoding DNA abundance (4.5 h post-induction vs induction); higher = less antimicrobial activity (less host growth inhibition)). Settings: time post-induction: 4.5 h; library: site-saturation at positions 5, 18, 19, 20.
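Note: peptides expressed intracellularly from a pBAD plasmid library in pooled LB shake-flask culture, induced with 0.3% L-arabinose, DNA abundance read by NGS, three biological replicates, DESeq2 with apeglm shrinkage.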

Sequence | shrunken log2 fold change
RRIRCRPPRLPRPRPRPECEPRP | 0.757
RRIRHRPPRLPRPRPRPEVRPRP | -0.00149
RRIRRRPPRLPRPRPRPGNHPRP | 0.0323
RRIRTRPPRLPRPRPRPVSLPRP | -0.298
RRIRSRPPRLPRPRPRPEIKPRP | 0.104
RRIRFRPPRLPRPRPRPAQWPRP | 0.296
RRIRQRPPRLPRPRPRPPMQPRP | -0.055
RRIRMRPPRLPRPRPRPQHHPRP | -0.0825
RRIRFRPPRLPRPRPRPKSCPRP | 0.0245
RRIRGRPPRLPRPRPRPAFMPRP | 0.585
RRIRIRPPRLPRPRPRPRMPPRP | -0.0534
RRIRKRPPRLPRPRPRPKIIPRP | -0.135
RRIRSRPPRLPRPRPRPQVSPRP | -0.236
RRIRTRPPRLPRPRPRPSNQPRP | -0.14
RRIRWRPPRLPRPRPRPPHIPRP | 0.696
RRIRPRPPRLPRPRPRPIDTPRP | -0.35
RRIRRRPPRLPRPRPRPNGSPRP | 0.183
RRIRERPPRLPRPRPRPGCWPRP | 0.166
RRIRFRPPRLPRPRPRPTYKPRP | -0.42
RRIRARPPRLPRPRPRPIERPRP | 0.047
RRIRNRPPRLPRPRPRPLDQPRP | -0.266
RRIRRRPPRLPRPRPRPGKDPRP | -0.0528
RRIRKRPPRLPRPRPRPKHMPRP | 0.03
RRIRGRPPRLPRPRPRPSRIPRP | -0.234
RRIRHRPPRLPRPRPRPARAPRP | 0.345

Sequence | shrunken log2 fold change
RRIRNRPPRLPRPRPRPTDAPRP | -0.15
RRIRQRPPRLPRPRPRPMMVPRP | -0.0145
RRIRYRPPRLPRPRPRPVHFPRP | -0.451
RRIRRRPPRLPRPRPRPEDVPRP | -0.0417
RRIRLRPPRLPRPRPRPDMLPRP | -0.125
RRIRARPPRLPRPRPRPPYVPRP | -0.131
RRIRTRPPRLPRPRPRPQPTPRP | 0.197
RRIRCRPPRLPRPRPRPMYVPRP | -0.766
RRIRCRPPRLPRPRPRPTPDPRP | 0.857
RRIRARPPRLPRPRPRPTFCPRP | 0.386
RRIRQRPPRLPRPRPRPTPSPRP | 0.507
RRIRMRPPRLPRPRPRPDRFPRP | 0.207
RRIRERPPRLPRPRPRPCLIPRP | -0.0716
RRIRSRPPRLPRPRPRPENHPRP | -0.138
RRIRYRPPRLPRPRPRPRDQPRP | -0.0852
RRIRQRPPRLPRPRPRPSENPRP | -0.0264
RRIRNRPPRLPRPRPRPWLYPRP | -0.00103
RRIRWRPPRLPRPRPRPIACPRP | 0.0997
RRIRTRPPRLPRPRPRPEDAPRP | 0.0648
RRIRKRPPRLPRPRPRPYTNPRP | -0.21
RRIRSRPPRLPRPRPRPYLEPRP | -0.118
RRIRDRPPRLPRPRPRPPWTPRP | 0.238
RRIRYRPPRLPRPRPRPKAYPRP | 0.00787
RRIRARPPRLPRPRPRPESDPRP | 1.17
RRIRYRPPRLPRPRPRPCTTPRP | -0.256

Sequence | shrunken log2 fold change
RRIRMRPPRLPRPRPRPQTKPRP | 0.205
RRIRHRPPRLPRPRPRPQRGPRP | -0.0034
RRIRMRPPRLPRPRPRPKAAPRP | 3.33
RRIRARPPRLPRPRPRPATYPRP | 0.0208
RRIRKRPPRLPRPRPRPEFKPRP | 0.165
RRIRYRPPRLPRPRPRPMNAPRP | -0.00745
RRIRVRPPRLPRPRPRPYYRPRP | -0.309
RRIRQRPPRLPRPRPRPVEDPRP | -0.0933
RRIRWRPPRLPRPRPRPFKIPRP | -0.358
RRIRGRPPRLPRPRPRPSECPRP | 0.519
RRIRYRPPRLPRPRPRPAGPPRP | -0.0366
RRIRQRPPRLPRPRPRPGRGPRP | 0.333
RRIRERPPRLPRPRPRPRDEPRP | 0.307
RRIRNRPPRLPRPRPRPLHHPRP | -0.39
RRIRIRPPRLPRPRPRPTETPRP | 0.0225
RRIRDRPPRLPRPRPRPVYIPRP | -0.497
RRIRRRPPRLPRPRPRPVFWPRP | 0.369
RRIRDRPPRLPRPRPRPFCWPRP | 0.445
RRIRCRPPRLPRPRPRPPWTPRP | 0.224
RRIRRRPPRLPRPRPRPIMYPRP | -0.186
RRIRGRPPRLPRPRPRPNRGPRP | -0.0157
RRIRIRPPRLPRPRPRPVQFPRP | -0.303
RRIRDRPPRLPRPRPRPMRAPRP | 0.953
RRIRSRPPRLPRPRPRPCARPRP | 0.00657
RRIRGRPPRLPRPRPRPKIAPRP | 0.386

Sequence | shrunken log2 fold change
RRIRFRPPRLPRPRPRPKCVPRP | -0.184
RRIRERPPRLPRPRPRPSGHPRP | -0.289
RRIRRRPPRLPRPRPRPSPLPRP | 0.479
RRIRWRPPRLPRPRPRPDRAPRP | 0.487
RRIRCRPPRLPRPRPRPRPEPRP | 0.44
RRIRARPPRLPRPRPRPWEPPRP | 0.18
RRIRTRPPRLPRPRPRPVIGPRP | 0.13
RRIRCRPPRLPRPRPRPCVHPRP | -0.0561
RRIRARPPRLPRPRPRPNAQPRP | 0.158
RRIRKRPPRLPRPRPRPLLKPRP | 0.00409
RRIRGRPPRLPRPRPRPHDCPRP | 0.0253
RRIRIRPPRLPRPRPRPECFPRP | 0.042
RRIRRRPPRLPRPRPRPIQNPRP | 0.0525
RRIRERPPRLPRPRPRPYDNPRP | 0.033
RRIRDRPPRLPRPRPRPNAPPRP | 0.209
RRIRPRPPRLPRPRPRPWTGPRP | -0.125
RRIRTRPPRLPRPRPRPSPWPRP | -0.114
RRIRVRPPRLPRPRPRPFIWPRP | -0.0481
RRIRFRPPRLPRPRPRPHGLPRP | 0.0196
RRIRDRPPRLPRPRPRPCCCPRP | 0.714
RRIRQRPPRLPRPRPRPDCPPRP | -0.283
RRIRLRPPRLPRPRPRPGKWPRP | 0.121
RRIRHRPPRLPRPRPRPTPMPRP | 0.0946
RRIRRRPPRLPRPRPRPEAYPRP | 0.15
RRIRIRPPRLPRPRPRPQERPRP | -0.17

Sequence | shrunken log2 fold change
RRIRVRPPRLPRPRPRPNLIPRP | -0.149
RRIRIRPPRLPRPRPRPIMGPRP | -0.08
RRIRRRPPRLPRPRPRPHGAPRP | 0.284
RRIRPRPPRLPRPRPRPPIVPRP | 0.161
RRIRWRPPRLPRPRPRPMSQPRP | 0.0791
RRIRIRPPRLPRPRPRPWGCPRP | -0.307
RRIRVRPPRLPRPRPRPAVQPRP | -0.121
RRIRHRPPRLPRPRPRPPMWPRP | 1.04
RRIRHRPPRLPRPRPRPEFSPRP | -0.246
RRIRNRPPRLPRPRPRPSMMPRP | -0.589
RRIRMRPPRLPRPRPRPVHNPRP | -0.0275
RRIRERPPRLPRPRPRPQFWPRP | 0.172
RRIRFRPPRLPRPRPRPPHLPRP | -0.0216
RRIRARPPRLPRPRPRPTEPPRP | 0.797
RRIRPRPPRLPRPRPRPPTRPRP | 0.683
RRIRRRPPRLPRPRPRPTCKPRP | 0.0874
RRIRQRPPRLPRPRPRPGTQPRP | -0.152
RRIRWRPPRLPRPRPRPYCMPRP | -0.401
RRIRARPPRLPRPRPRPKYFPRP | 0.0918
RRIRRRPPRLPRPRPRPIAYPRP | 0.0129
RRIRERPPRLPRPRPRPPFHPRP | -0.139
RRIRMRPPRLPRPRPRPNPRPRP | 0.718
RRIRLRPPRLPRPRPRPSFAPRP | -0.067
RRIRLRPPRLPRPRPRPCRSPRP | -0.0599
RRIRTRPPRLPRPRPRPWCAPRP | -0.203

Sequence | shrunken log2 fold change
RRIRKRPPRLPRPRPRPHPTPRP | 0.431
RRIRERPPRLPRPRPRPFQGPRP | 0.0891
RRIRWRPPRLPRPRPRPGNWPRP | 0.0533
RRIRYRPPRLPRPRPRPKNWPRP | -0.3
RRIRCRPPRLPRPRPRPRCPPRP | 0.418
RRIRCRPPRLPRPRPRPPPTPRP | 1.48
RRIRNRPPRLPRPRPRPQYDPRP | -0.0449
RRIRIRPPRLPRPRPRPFTQPRP | -0.71
RRIRWRPPRLPRPRPRPSGDPRP | 0.537
RRIRWRPPRLPRPRPRPPACPRP | 0.531
RRIRLRPPRLPRPRPRPESKPRP | 0.286
RRIRGRPPRLPRPRPRPCRAPRP | 0.495
RRIRCRPPRLPRPRPRPEWVPRP | 0.293
RRIRPRPPRLPRPRPRPIVKPRP | 0.000733
RRIRARPPRLPRPRPRPNQRPRP | 0.532
RRIRTRPPRLPRPRPRPSDLPRP | -0.0743
RRIRGRPPRLPRPRPRPHFQPRP | -0.099
RRIRARPPRLPRPRPRPKKEPRP | 0.0428
RRIRYRPPRLPRPRPRPMWDPRP | 0.0162
RRIRARPPRLPRPRPRPIEIPRP | 0.0613
RRIRGRPPRLPRPRPRPMKIPRP | 0.533
RRIRCRPPRLPRPRPRPQEAPRP | 0.0141
RRIRKRPPRLPRPRPRPLITPRP | 0.0992
RRIRWRPPRLPRPRPRPATSPRP | 0.385
RRIRKRPPRLPRPRPRPRSEPRP | -0.00081
